Values belong to the binder of their own block, whether it stands above or below them.
How the values were obtained:
[1] = target: the molecule itself; test: cross-linking; cysteine cross-linking with BMOE (1 mM, 45 s, quenched with DTT) of purified hinge/coiled coil constructs in 20 mM Tris-HCl, 50 mM NaCl; SDS-PAGE, and denaturing agarose gels of entrapped ssDNA circles
[2] = target: T1, scSmc4(598-923) condensin hinge/coiled coil with V721C and M821C (S. cerevisiae, UniProt Q12267 598-923, V721C | M821C); test: cross-linking; cysteine cross-linking with BMOE (0.58 mM, 6 min on ice) of purified scSmc2/4 hinge, 1.4 µM in CB buffer (50 mM NaCl, 1 mM MgCl2, 50 mM HEPES pH 7.5, 1 mM TCEP, 5 % glycerol); SDS-PAGE; conditions: both partners purified
T1 construct: Smc4, S. cerevisiae condensin, residues 598-923; also called scSmc4 hinge; source: Sf9, co-purified with scSmc2 hinge (Strep-Tactin XT, cation exchange, SEC)
T1 sequence (looked up): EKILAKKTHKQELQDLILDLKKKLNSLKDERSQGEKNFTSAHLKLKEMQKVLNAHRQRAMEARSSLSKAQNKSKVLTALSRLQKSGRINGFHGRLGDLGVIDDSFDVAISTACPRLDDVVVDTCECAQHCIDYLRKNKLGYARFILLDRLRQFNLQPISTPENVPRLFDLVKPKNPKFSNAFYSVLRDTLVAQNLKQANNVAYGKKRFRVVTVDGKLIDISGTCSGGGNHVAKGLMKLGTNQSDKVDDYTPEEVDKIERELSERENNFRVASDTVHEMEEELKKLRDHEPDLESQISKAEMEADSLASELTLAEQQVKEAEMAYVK

B1: bsuSmc(400-776; C437S, R558C, N634C) hinge/coiled coil (domain or fragment, B. subtilis, UniProt P51834 400-776, looked up)
chain: QLLDDQMSQSAVTLQRLADNNEKHLQERHDISARKAASETEFARIEQEIHSQVGAYRDMQTKYEQKKRQYEKNESALYQAYQYVQQARSKKDMLETMQGDFSGFYQGVKEVLKAKERLGGIRGAVLELISTEQKYETAIEIALGASAQHVVTDDEQSACKAIQYLKQNSFGRATFLPLSVIRDRQLQSRDAETAARHSSFLGVASELVTFDPAYRSVIQNLLGTVLITEDLKGACELAKLLGHRYRIVTLEGDVVNPGGSMTGGAVKKKNNSLLGRSRELEDVTKRLAEMEEKTALLEQEVKTLKHSIQDMEKKLADLRETGEGLRLKQQDVKGQLYELQVAEKNINTHLELYDQEKSALSESDEERKVRKRKLEEE
notes: Smc (chromosome partition protein Smc), Bacillus subtilis, residues 400-776; also called bsuSmc hinge; B. subtilis Smc hinge; source: E. coli BL21(DE3) Gold, purified (as the scSmc5/6 hinge constructs: HisTrap, SEC)
binding result [1]: binds

binding result [2]: binds
B2: scSmc2(443-740) condensin hinge/coiled coil with S560C and K639C (domain or fragment, S. cerevisiae, UniProt P38989 443-740, looked up)
chain: KDNELNVKHVKQCQETCDKLRARLVEYGFDPSRIKDLKQREDKLKSHYYQTCKNSEYLKRRVTNLEFNYTKPYPNFEASFVHGVVGQLFQIDNDNIRYATALQTCAGGRLFNVVVQDCQTATQLLERGRLRKRVTIIPLDKIYTRPISSQVLDLAKKIAPGKVELAINLIRFDESITKAMEFIFGNSLICEDPETACKITFHPKIRARSITLQGDVYDPEGTLSGGSRNTSESLLVDIQKYNQIQKQIETIQADLNHVTEELQTQYATSQKTKTIQSDLNLSLHKLDLAKRNLDANPS
notes: Smc2, S. cerevisiae condensin, residues 443-740; also called scSmc2 hinge; source: Sf9, co-purified with scSmc4 hinge (Strep-Tactin XT, cation exchange, SEC)

From paper PMC12647877, “The SMC Hinge is a Selective Gate for Obstacle Bypass” (Nature Communications, 2025)
